Source: US20260167693A1

Molecular target: human CD19 (human) (UniProt P15391)
Assay: cell-based or functional assay

Sequence of human CD19 (human) (P15391 20-556): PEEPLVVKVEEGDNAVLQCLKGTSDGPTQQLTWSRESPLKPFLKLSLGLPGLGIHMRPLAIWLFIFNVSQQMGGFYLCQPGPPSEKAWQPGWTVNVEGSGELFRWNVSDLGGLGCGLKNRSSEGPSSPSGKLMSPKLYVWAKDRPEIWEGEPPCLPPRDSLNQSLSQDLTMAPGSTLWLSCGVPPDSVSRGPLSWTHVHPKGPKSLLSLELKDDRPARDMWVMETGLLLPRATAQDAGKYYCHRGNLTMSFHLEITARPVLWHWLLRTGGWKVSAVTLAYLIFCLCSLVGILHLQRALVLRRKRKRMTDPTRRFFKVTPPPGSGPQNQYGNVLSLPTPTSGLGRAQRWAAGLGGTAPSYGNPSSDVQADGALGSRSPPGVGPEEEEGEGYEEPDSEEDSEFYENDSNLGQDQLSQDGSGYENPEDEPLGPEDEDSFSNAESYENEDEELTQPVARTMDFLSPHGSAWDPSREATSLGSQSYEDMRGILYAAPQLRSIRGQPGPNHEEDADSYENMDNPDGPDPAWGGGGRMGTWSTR

CD8SP-CD19BU12(vL-vH)-MYC-BBz-PAC gave an NFAT-GFP (%) after overnight co-culture with RAJI cells of 30.2%.
